This note sets out measurements from US20220267462A1 (HARPOON THERAPEUTICS, published 2022).

The labels stand for the following.
B1: EPL159 (VHH)
VHH: QVQLQESGGGLVQAGGSLRLSCAASGFAFGNHWMYWYRQAPGRGRELVASISSGGSTNYVDSVKGRFTISRDNARNTVYLQMYSLKPEDTAVYYCGTSDNWGQGTQVTVSS
B2: EPL145 (VHH)
VHH: QVQLQESGGGLVQAGGSLRLSCAASGFIFRAASMGWFRQSPGNERELVATVSSGGFTNYADSVKGRFTISRDNAKNTVYLQMNSLKPEDTAVYFCGATFVRSDGHHTIYGQGTQVTVSS
B3: EPL15 (VHH)
VHH: QVQLQESGGGSVLAGGSLRLSCAASGFTFSSYYMSWVRQAPGKGLEWVSGIHYTGDWTNYADSVKGRFTISRDNAKNELYLEMNNLKPEDTAVYYCARGSDKGQGTQVTVSS
B4: EPL34 (VHH)
VHH: B3 VHH with L13Q
B5: EPL13 (VHH)
VHH: B1 VHH with A14P
B6: EPL129 (VHH)
VHH: B1 VHH with K86R
B7: EPL60 (VHH)
VHH: QVQLQESGGGLVQAGGSLRLSCAASEYILSMYRMAWYRQAPGKVRELVADMSSGGTTNYADFVKGRFTISRDNDRNTVYLQMNRLQPEDTAAYYCNVAGRTGPPSYDAFNNWGQGTQVTVSS
B8: EPL156 (VHH)
VHH: B7 VHH with A14P, G16A, L20V
B9: EPL20 (VHH)
VHH: QVQLQESGGGLVQAGGSLKLSCAASGNVFRAATMAWYRQAPEKQREMVATIASGGTTNYADFVKGRFTISRDNAKNTVYLQMNTLKPEDTAVYYCNAGYLTSLGPKNYWGQGTQVTVSS
B10: EPL125 (VHH)
VHH: B9 VHH with K19R, A40V, G98L, N107S
B11: EPL86 (VHH)
VHH: QVQLQESGGGLVQPGGSLRLSCAASGFTFSDWAMSWVRQAPGKGLEWVSGIHYGDHTTHYADFVKGRFTISRDDAKNTLYLQMNSLKPEDTAVYYCARGSTKGQGTQVTVSS
B12: EPL153 (VHH)
VHH: B11 VHH with G50S, A97E, R98K, S100T, K102R

Substitutions are numbered along the chain they refer to.

For the first experiment, the target named is cynomolgus EpCAM protein (cynomolgus). In words: colorimetric ELISA. (In general: In an ELISA, binding on a coated surface is turned into a signal by an enzyme label.)
The molecule B1 registered a Cynomolgus EpCAM/Control of 2.

In turn, B2 gave a Cynomolgus EpCAM/Control of 2.

A further experiment addresses T1, human EpCAM protein (human, UniProt P16422 24-265, biotinylated in the Octet assays (site not stated)).
T1 construct: also called hu EpCAM; biotinylated human EpCAM protein
T1 sequence: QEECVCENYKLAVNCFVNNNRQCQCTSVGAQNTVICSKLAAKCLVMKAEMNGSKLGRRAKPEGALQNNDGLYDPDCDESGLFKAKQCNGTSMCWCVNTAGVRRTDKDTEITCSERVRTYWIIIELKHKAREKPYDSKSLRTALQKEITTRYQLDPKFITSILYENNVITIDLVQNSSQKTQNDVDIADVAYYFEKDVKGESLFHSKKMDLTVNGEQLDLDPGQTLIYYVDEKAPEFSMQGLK
Kind of experiment: colorimetric ELISA. From the text: (§1) A phage display library for expression of heavy variable antibody domains was constructed from circulating B cells. See van der Linden, de Geus, Stok, Bos, van Wassenaar, Verrips, and Frenken. 2000. J Immunol Methods 240:185-195.
As for B3, the “Human EpCAM/Control” value is 8.

For B4, the “Human EpCAM/Control” value came to 10.

For B5, the “Human EpCAM/Control” value came out at 17.

On to B6, for which the “Human EpCAM/Control” value is 20.

B7: the “Human EpCAM/Control” value was 10.

Turning to B8, the “Human EpCAM/Control” value was found to be 16.

Regarding B9, the “Human EpCAM/Control” value came out at 6.

As for B10, the “Human EpCAM/Control” value was found to be 8.

For B11, the “Human EpCAM/Control” value came to 8.

Consider B12, for which the “Human EpCAM/Control” value amounted to 31.

As to B2, the “Human EpCAM/Control” value was 3.

In the next experiment the target is T2, cynomolgus EpCAM protein (cynomolgus, UniProt Q1WER1 27-265 (rhesus entry), limits assumed, biotinylated in the Octet assays (site not stated)).
T2 construct: also called cy EpCAM; biotinylated cynomolgus EpCAM protein
T2 sequence: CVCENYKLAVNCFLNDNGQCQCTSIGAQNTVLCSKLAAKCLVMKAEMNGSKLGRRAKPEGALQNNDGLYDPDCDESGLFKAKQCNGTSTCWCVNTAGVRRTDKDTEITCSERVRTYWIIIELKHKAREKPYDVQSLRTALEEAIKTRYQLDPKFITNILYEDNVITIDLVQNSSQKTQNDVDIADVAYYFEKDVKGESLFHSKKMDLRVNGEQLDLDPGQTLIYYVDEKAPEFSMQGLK
Kind of experiment: colorimetric ELISA.
Excerpt: as §1
Regarding B3, the “Cynomolgus EpCAM/Control” value was found to be 35.

For the molecule B4, the “Cynomolgus EpCAM/Control” value came out at 36.

As for B5, the “Cynomolgus EpCAM/Control” value was determined as 23.

With B6, the “Cynomolgus EpCAM/Control” value worked out at 29.

For B7, the “Cynomolgus EpCAM/Control” value was 33.

B8: the “Cynomolgus EpCAM/Control” value is 17.

On to B9, for which the “Cynomolgus EpCAM/Control” value is 4.

Regarding B10, the “Cynomolgus EpCAM/Control” value is 8.

For B11, the “Cynomolgus EpCAM/Control” value stood at 31.

In the case of B12, the “Cynomolgus EpCAM/Control” value was 21.
